We go through 5 molecules from patent publication US20200369769A1 (Bayer, published 2020).

Sequences and labels used below:
B1: 59-08.B02 (antibody, V domains shown)
VH: QVQLVQSGAEVKKPGSSVKVSCKASGGTFSSYAISWVRQAPGQGLEWMGGIIPILGIANYAQKFQGRVTITADKSTSTAYMELSSLRSEDTAVYYCARGRLPYGDFWDSWGQGTLVTVSS
VL: not shown
notes: also called BAY1905254; aILDR2
B2: 56-02.E08 (antibody, V domains shown)
VH: EVQLVQSGAEVKKPGESLKISCKASGYSFTTYWIGWVRQVPGKGLEWMGIIYPGDYDTRYSPSFQGQVTISADKSINTAYLQWSSLEASDSAMYYCAIGEPFDYWGQGTLVTVSS
VL: not shown
notes: Full length IgG; The KD assay says 'hIgG1s'
B3: 61-02.C05 (antibody, V domains shown)
VH: EVQLVESGGGVVQPGGSLRLSCAASGFTFSSYAMSWVRQAPGKGLEWVSGISSSGGSTQYADSVKGRFTVSRDNSKNTLYLQMKSLRAEDTALYYCAKDFVGVLPDAFDIWGQGTMVTVSS
VL: DIQLTQSPSSLSASVGDRVTITCQASQDTNKYLNWYQQKPGKAPELLIYGASTLESGVPPRFSASGSGTDFTLTINSLQPEDIGRYYCQQYHIPPPSFGGGTKLEIK
notes: Full length IgG; The KD assay says 'hIgG1s'; also called 61-02.005
B4: 74.15.G09 (antibody, V domains shown)
VH: EVQLVESGGGVVQPGRSLRLSCAASGFTFSSYGMHWVRQAPGKGLEWVAVISYDGSNKYYADSVKGRFTISRDNSKNTLYLQMNSLRAEDTAVYYCAKESPSVGLGSYYDFWSGLYGMDVWGQGTTVTVSS
VL: EIVLTQSPGTLSLSPGERVTLSCRTGQRVENLFIAWYQQKPGQAPRLLLYGASNRATGIPDRFSGSGSGTDFTLTISRLEPEDSAVYYCQQYDDSGITFGQGTRLEIK
notes: as for B2
B5: 56.02.E10 (antibody, V domains shown)
VH: QVQLVESGGGLVKPGGSLRLSCAASGFTFSNYGMHWVRQAPGKGPEWLAFIRYDGSKKYYADSVRGRFTISRDNSKNMLYLQMNSLRTEDTAVYYCAKEGIAAPGSGYYYGMDVWGQGTTVTVSS
VL: QSALTQPASVSGSPGQSITISCSGTTTDVGRYTLVSWYQHHPGKAPKLIIFEVNKRPSGVSSRFSGSKSGNTASLTISGLQTEDEADYFCCSYTGTTVIFGGGTQLTVL

The term Kd denotes the concentration at which binding is half-saturated.

The target of one assay is T1, human ILDR2 (Immunoglobulin Like Domain Containing Receptor 2) (human, UniProt Q71H61 21-639).
T1 construct: whole, on cells; In the MLR assay the target is endogenous ILDR2 on primary donor cells; also called C1ORF32; huILDR2
T1 sequence (looked up): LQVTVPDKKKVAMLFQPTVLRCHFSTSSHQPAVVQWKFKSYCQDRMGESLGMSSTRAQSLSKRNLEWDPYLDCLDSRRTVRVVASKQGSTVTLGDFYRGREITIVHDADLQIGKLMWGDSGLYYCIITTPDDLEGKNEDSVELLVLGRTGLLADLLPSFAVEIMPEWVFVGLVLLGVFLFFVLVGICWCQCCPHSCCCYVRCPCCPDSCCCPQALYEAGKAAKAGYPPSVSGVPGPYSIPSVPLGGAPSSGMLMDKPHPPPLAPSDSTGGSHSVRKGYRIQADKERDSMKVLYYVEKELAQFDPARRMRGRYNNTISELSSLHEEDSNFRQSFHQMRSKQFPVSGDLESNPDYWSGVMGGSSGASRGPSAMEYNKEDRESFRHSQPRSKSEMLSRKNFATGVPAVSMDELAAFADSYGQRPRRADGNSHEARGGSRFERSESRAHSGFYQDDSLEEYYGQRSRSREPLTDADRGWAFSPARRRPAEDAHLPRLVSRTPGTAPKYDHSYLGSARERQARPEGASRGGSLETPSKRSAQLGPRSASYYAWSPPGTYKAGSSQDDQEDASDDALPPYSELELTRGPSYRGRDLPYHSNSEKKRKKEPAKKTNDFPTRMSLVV
Description: flow cytometry titration of hIgG1 on HEK cells stably transfected with human ILDR2; 1:1 equilibrium fit of MFI. As to the method:
KD values were determined by flowcytometric quantitation of binding to HEK cells stably transfected with human ILDR2 and use of an algorithm designed to extrapolate affinities based on the binding curve. Briefly, hIgG1 s were added at a binding site concentration range of 3 pM-209 nM to a constant number of cells (100,000 cells/well) over 16 wells in a 96-well plate. One well contained cells without any added IgG to serve as a blank well. The cells were equilibrated for 4 hours at 4° C. An excess of Cy5-labeled goat anti-human polyclonal antibody (Jackson ImmunoResearch 109-606-097) at 90nM was added to each well after one FACS buffer wash of the cells. Cells were washed twice after a 30 minute incubation (at 4° C.) with the labeling pAb and then the Mean Fluorescence Intensity (MFI) was recorded over approximately 10,000 “events” using an Intellicyte flow cytometer. The […] of the IgGs binding to HEK 293 cells expressing ILDR2 were estimated by fitting the MFI vs. the IgG binding site concentration curve using a 1:1 equilibrium model as detailed in Drake and Klakamp (2007).
Regarding B1, the Kd amounted to 2 nM.

Consider B2, for which the Kd came out at 2.7 nM.

Molecule B3 registered a Kd of 10.7 nM.

Turning to B4, binding was put at a Kd of 12.4 nM.

The target of a further assay is T1, human ILDR2 (Immunoglobulin Like Domain …). The experiment in a line: cell-based or functional assay.
With B1, the “IL2 concentration (% over isotype control), mixed lymphocyte reaction” value amounted to 91 % over isotype control.

For the molecule B2, the “IL2 concentration (% over isotype control), mixed lymphocyte reaction” value came out at 74 % over isotype control.

Consider B5, for which the “IL2 concentration (% over isotype control), mixed lymphocyte reaction” value was 223 % over isotype control.

In the case of B3, the “IL2 concentration (% over isotype control), mixed lymphocyte reaction” value worked out at 82 % over isotype control.

In the case of B4, the “IL2 concentration (% over isotype control), mixed lymphocyte reaction” value amounted to 86 % over isotype control.
